Legend:
Experiment in all cases: negative stain EM with 2D averaging; DH loading reaction in solution, no downstream purification: 10 nM MH-NCP-ARS1-NCP DNA, 20 nM ORC, 30 nM Cdc6, 0.5 mM ATP, 20 nM MCM-Cdt1; 25 mM HEPES pH 7.6, 100 mM potassium chloride, 10 mM magnesium acetate, 1 mM DTT; 30 °C, 30 min; DH counted as % of averageable MCM particles, N = 3; assemblies form on DNA
[1] = molecular target: MCM-Cdt1 complex with Mcm7 R593A (Arginine Finger variant) (Saccharomyces cerevisiae) (UniProt P29469)
[2] = molecular target: MCM-Cdt1 complex with Mcm2 R676A (Arginine Finger variant) (Saccharomyces cerevisiae) (UniProt P29469)
[3] = molecular target: MCM-Cdt1 complex, wild type (expressed in yeast) (Saccharomyces cerevisiae) (UniProt P29469)
[4] = molecular target: MCM-Cdt1 complex with Mcm6 R708A (Arginine Finger variant) (Saccharomyces cerevisiae) (UniProt P29469)
[5] = molecular target: MCM-Cdt1 complex with Mcm4 R701A (Arginine Finger variant) (Saccharomyces cerevisiae) (UniProt P29469)
[6] = molecular target: MCM-Cdt1 complex with Mcm3 R542A (Arginine Finger variant) (Saccharomyces cerevisiae) (UniProt P29469)

MCM-Cdt1 complex with Mcm7 R593A (Arginine Finger variant), P29469 1-868; P24279 1-971; P30665 1-933; P29496 1-775; P53091 1-1017; P38132 1-845; P47112 1-604
DH as % of averageable MCM particles [1]: 5.3%

MCM-Cdt1 complex with Mcm2 R676A (Arginine Finger variant), P29469 1-868; P24279 1-971; P30665 1-933; P29496 1-775; P53091 1-1017; P38132 1-845; P47112 1-604
DH as % of averageable MCM particles [2]: 0.5%

MCM-Cdt1 complex, wild type (expressed in yeast), P29469 1-868; P24279 1-971; P30665 1-933; P29496 1-775; P53091 1-1017; P38132 1-845; P47112 1-604
DH as % of averageable MCM particles [3]: 56.5%

MCM-Cdt1 complex with Mcm6 R708A (Arginine Finger variant), P29469 1-868; P24279 1-971; P30665 1-933; P29496 1-775; P53091 1-1017; P38132 1-845; P47112 1-604
DH as % of averageable MCM particles [4]: 2.4%

MCM-Cdt1 complex with Mcm4 R701A (Arginine Finger variant), P29469 1-868; P24279 1-971; P30665 1-933; P29496 1-775; P53091 1-1017; P38132 1-845; P47112 1-604
DH as % of averageable MCM particles [5]: 22.4%

MCM-Cdt1 complex with Mcm3 R542A (Arginine Finger variant), P29469 1-868; P24279 1-971; P30665 1-933; P29496 1-775; P53091 1-1017; P38132 1-845; P47112 1-604
DH as % of averageable MCM particles [6]: 13.9%

— publication PMC11748629, “Unidirectional MCM translocation away from ORC drives origin licensing” (Nature Communications, 2025)
